Assay results taken from PMC2572193, “Structural Analysis of the Interactions Between Paxillin LD Motifs and α-Parvin” (Structure(London, England:1993), 2008).
Entries after “also recorded” stand apart in the source; their conditions may differ. Where a SMILES comes first, the peptide text is derived from it. Where no end group is shown, it is not given here. The star is where a group is joined. 5FAM = O=C1OC2(c3ccc(O)cc3Oc3cc(O)ccc32)c2ccc(C(=O)*)cc21

B1: paxillin LD2 peptide (human paxillin residues 141-160) (peptide)
peptide: NLSELDRLLLELNAVQHNPP
notes: paxillin, human, LD2 motif, residues 141-160; source: synthetic peptide, bought: Severn Biotech
B2: 5-FAM-labeled LD1 peptide (paxillin residues 1-20) (peptide)
peptide: MDDLDALLADLESTTSHISK(5FAM)
notes: paxillin, human, LD1 motif, residues 1-20; also called fluorophore-labeled LD1 peptide; source: synthetic peptide, bought: Severn Biotech
B3: paxillin LD1 peptide (human paxillin residues 1-20) (peptide)
peptide: MDDLDALLADLESTTSHISK
notes: paxillin, human, LD1 motif, residues 1-20; source: synthetic peptide, bought: Severn Biotech
B4: paxillin LD3 peptide (human paxillin residues 213-232) (peptide)
peptide: VRPSVESLLDELESSVPSPV
notes: paxillin, human, LD3 motif, residues 213-232; source: synthetic peptide, bought: Severn Biotech
B5: paxillin LD4 peptide (human paxillin residues 262-281) (peptide)
peptide: ATRELDELMASLSDFKFMAQ
notes: paxillin, human, LD4 motif, residues 262-281; source: synthetic peptide, bought: Severn Biotech

Columns and labels:
[1] = target: T1, α-parvin-CHC (residues 242–372) (Homo sapiens, UniProt Q9NVD7); assay: NMR 1H-15N HSQC titration of 15N-enriched α-parvin-CHC with LD peptides; format: binding; settings: for KD / affinity range in words: NMR titration, 50 mM sodium phosphate, 100 mM NaCl, pH 6.9, 25°C
T1 construct: α-parvin-CHC (242–372) were subcloned; GST (N, cleaved yes); made in house; host or cells: Escherichia coli BL21
T1 sequence (Q9NVD7 242-372): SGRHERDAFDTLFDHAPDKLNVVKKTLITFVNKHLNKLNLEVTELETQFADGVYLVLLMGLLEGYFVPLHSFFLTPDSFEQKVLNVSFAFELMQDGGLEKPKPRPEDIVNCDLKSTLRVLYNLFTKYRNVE

[2] = Solubility of LD peptide noted in NMR titration; format: physicochemical; settings: NMR titration buffer, 50 mM sodium phosphate, 100 mM NaCl, pH 6.9
Experimental: Figure S2. Determination of KD-Values for the Interaction of α−Parvin-CHC w ith LD Peptides […]
Titrations were performed with peptides representing the LD1 (A), LD 2(B), LD3 (C), LD4 (D), and […]
δ∆(1H15N) > 0.2 ppm for LD1 and LD2) were fitted globally to a single-site model (see experimental procedures). The errors refer to the fit only and exclude experimental errors. Note […]
respectively. No value could be derived for LD5 due to its low affinity. The KD-value for LD1 represents the weighted average over both antiparallel binding orientations, which exchange fast […]

[3] = target: paxillin LD1 (Homo sapiens) (UniProt P49023); settings: cited from earlier work
[4] = target: T2, α-parvin-CHC (C-terminal calponin homology domain fragment of human α-parvin, residues 242-372) (human, UniProt Q9NVD7 242-372); assay: NMR titration; 1H-15N HSQC of 235 μM 15N-enriched α-parvin-CHC titrated with LD peptide; 50 mM sodium phosphate, 100 mM NaCl, 2 mM DTT, 5% D2O, pH 6.9, 25°C; global fit to a single-site model; settings: both partners purified
T2 construct: α-parvin, human, residues 242-372: the entire C-terminal CH domain and a portion of the inter-CH domain linker; Expressed from pGEX-6P1 (BamHI/EcoRI); also called type-5 CH domain of α-parvin; actopaxin; source: E. coli BL21, GST fusion, purified (glutathione sepharose, 3C-protease cleavage, Superdex 75); 15N-enriched for NMR
T2 sequence (looked up): T1 sequence (Q9NVD7 242-372)

[5] = target: T2, α-parvin-CHC (C-terminal calponin …); assay: fluorescence polarisation; fluorescence anisotropy; 50 nM 5-FAM-labeled LD1 peptide, protein up to 300 μM; 100 mM potassium phosphate, 2 mM DTT, pH 8.0, 25°C; global fit to a single-site model; settings: both partners purified
[6] = target: T3, full-length human α-parvin (1-372) (human, UniProt Q9NVD7 1-372); assay: as above; settings: both partners purified
T3 construct: α-parvin, human, full length, residues 1-372; Expressed from pGEX-6P1 (EcoRI/EcoRI); also called full-length α-parvin; actopaxin; source: E. coli BL21, GST fusion, purified (glutathione sepharose, 3C-protease cleavage, MonoQ)
T3 sequence (looked up): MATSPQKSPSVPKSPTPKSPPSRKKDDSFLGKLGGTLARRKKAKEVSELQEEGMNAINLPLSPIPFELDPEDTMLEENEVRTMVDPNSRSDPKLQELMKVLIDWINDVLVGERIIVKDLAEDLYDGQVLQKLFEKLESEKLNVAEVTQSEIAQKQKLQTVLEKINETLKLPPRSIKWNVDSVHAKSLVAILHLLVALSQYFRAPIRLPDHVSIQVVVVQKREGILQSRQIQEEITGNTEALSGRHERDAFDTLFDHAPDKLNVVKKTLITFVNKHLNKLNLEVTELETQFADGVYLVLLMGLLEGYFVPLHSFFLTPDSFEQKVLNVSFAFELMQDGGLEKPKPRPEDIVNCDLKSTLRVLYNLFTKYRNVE

Row | Molecule | KD / affinity range in words [1] | Kd [4] | also measured
1 | CC[C@H](C)[C@H](NC(=O)[C@H](Cc1c[nH]cn1)NC(=O)[C@H](CO)NC(=O)[C@@H](NC(=O)[C@@H](NC(=O)[C@H](CO)NC(=O)[C@H](CCC(=O)O)NC(=O)[C@H](CC(C)C)NC(=O)[C@H](CC(=O)O)NC(=O)[C@H](C)NC(=O)[C@H](CC(C)C)NC(=O)[C@H](CC(C)C)NC(=O)[C@H](C)NC(=O)[C@H](CC(=O)O)NC(=O)[C@H](CC(C)C)NC(=O)[C@H](CC(=O)O)NC(=O)[C@H](CC(=O)O)NC(=O)[C@@H](N)CCSC)[C@@H](C)O)[C@@H](C)O)C(=O)N[C@@H](CO)C(=O)N[C@@H](CCCCN)C(=O)O [LD1] (H-MDDLDALLADLESTTSHISK-OH) | micromolar range |  | 
2 | CC(C)C[C@H](NC(=O)[C@H](CCC(=O)O)NC(=O)[C@H](CC(C)C)NC(=O)[C@H](CC(C)C)NC(=O)[C@H](CC(C)C)NC(=O)[C@H](CCCNC(=N)N)NC(=O)[C@H](CC(=O)O)NC(=O)[C@H](CC(C)C)NC(=O)[C@H](CCC(=O)O)NC(=O)[C@H](CO)NC(=O)[C@H](CC(C)C)NC(=O)[C@@H](N)CC(N)=O)C(=O)N[C@@H](CC(N)=O)C(=O)N[C@@H](C)C(=O)N[C@H](C(=O)N[C@@H](CCC(N)=O)C(=O)N[C@@H](Cc1c[nH]cn1)C(=O)N[C@@H](CC(N)=O)C(=O)N1CCC[C@H]1C(=O)N1CCC[C@H]1C(=O)O)C(C)C [LD2] | micromolar range |  | 
3 | CC(C)C[C@H](NC(=O)[C@H](CCC(=O)O)NC(=O)[C@H](CC(=O)O)NC(=O)[C@H](CC(C)C)NC(=O)[C@H](CC(C)C)NC(=O)[C@H](CO)NC(=O)[C@H](CCC(=O)O)NC(=O)[C@@H](NC(=O)[C@H](CO)NC(=O)[C@@H]1CCCN1C(=O)[C@H](CCCNC(=N)N)NC(=O)[C@@H](N)C(C)C)C(C)C)C(=O)N[C@@H](CCC(=O)O)C(=O)N[C@@H](CO)C(=O)N[C@@H](CO)C(=O)N[C@H](C(=O)N1CCC[C@H]1C(=O)N[C@@H](CO)C(=O)N1CCC[C@H]1C(=O)N[C@H](C(=O)O)C(C)C)C(C)C [LD3] (H-VRPSVESLLDELESSVPSPV-OH) | relatively low affinity; also recorded: millimolar range |  | 
4 | CSCC[C@H](NC(=O)[C@H](Cc1ccccc1)NC(=O)[C@H](CCCCN)NC(=O)[C@H](Cc1ccccc1)NC(=O)[C@H](CC(=O)O)NC(=O)[C@H](CO)NC(=O)[C@H](CC(C)C)NC(=O)[C@H](CO)NC(=O)[C@H](C)NC(=O)[C@H](CCSC)NC(=O)[C@H](CC(C)C)NC(=O)[C@H](CCC(=O)O)NC(=O)[C@H](CC(=O)O)NC(=O)[C@H](CC(C)C)NC(=O)[C@H](CCC(=O)O)NC(=O)[C@H](CCCNC(=N)N)NC(=O)[C@@H](NC(=O)[C@H](C)N)[C@@H](C)O)C(=O)N[C@@H](C)C(=O)N[C@@H](CCC(N)=O)C(=O)O [LD4] (H-ATRELDELMASLSDFKFMAQ-OH) | micromolar range |  | solubility (in words) [2]: poor solubility
5 | PGSQLDSMLGSLQSDLNKLG [LD5] | low affinity; also recorded: millimolar range; also recorded: mM range ^a |  | 
6 | PROXYL-labeled LD1: N-terminally blocked LD1 with N-terminal methionine replaced by cysteine, labeled with 3-maleimido-PROXYL (C(3‑maleimido‑PROXYL)DDLDALLADLESTTSHISK; also: N-terminally blocked (group not given here)) |  |  | KD-value compared with underivatized LD1 peptide ([1]; data not shown): the same
7 | α-parvin CHC (from UniProt Q9NVD7) |  |  | Kd [3]: 1.2 mM
8 | B1 |  | 204 ± 3 µM | 
9 | B2 |  |  | Kd [5]: 120 ± 20 µM; Kd [6]: 130 ± 22 µM
10 | B3 |  | 96 ± 2 µM | 
11 | B4 |  | 2300 ± 100 µM | 
12 | B5 |  | 140 ± 30 µM | 
